According to patent publication US20170166895:
pIC50, pKd: −log10 of the molar value.

What was measured:
[1] = biological target: T1, Complement component 3 (C3) (Homo sapiens) (UniProt P01024+P01024); test: filter; details: all U = NapdU, 3'-3' idT, SB18T0.01, 37C
[2] = biological target: T1, Complement component 3 (C3) (Homo sapiens); test: inhibition; details: P = NapdU (all U), 3'-3' idT, hemolysis, 20 nM C3, GVB++, 37 C
[3] = 2'-OMe at 1,2,3,5,7,10,13,26,27,28

T1 sequence (P01024 23-667, chain 1 of 2): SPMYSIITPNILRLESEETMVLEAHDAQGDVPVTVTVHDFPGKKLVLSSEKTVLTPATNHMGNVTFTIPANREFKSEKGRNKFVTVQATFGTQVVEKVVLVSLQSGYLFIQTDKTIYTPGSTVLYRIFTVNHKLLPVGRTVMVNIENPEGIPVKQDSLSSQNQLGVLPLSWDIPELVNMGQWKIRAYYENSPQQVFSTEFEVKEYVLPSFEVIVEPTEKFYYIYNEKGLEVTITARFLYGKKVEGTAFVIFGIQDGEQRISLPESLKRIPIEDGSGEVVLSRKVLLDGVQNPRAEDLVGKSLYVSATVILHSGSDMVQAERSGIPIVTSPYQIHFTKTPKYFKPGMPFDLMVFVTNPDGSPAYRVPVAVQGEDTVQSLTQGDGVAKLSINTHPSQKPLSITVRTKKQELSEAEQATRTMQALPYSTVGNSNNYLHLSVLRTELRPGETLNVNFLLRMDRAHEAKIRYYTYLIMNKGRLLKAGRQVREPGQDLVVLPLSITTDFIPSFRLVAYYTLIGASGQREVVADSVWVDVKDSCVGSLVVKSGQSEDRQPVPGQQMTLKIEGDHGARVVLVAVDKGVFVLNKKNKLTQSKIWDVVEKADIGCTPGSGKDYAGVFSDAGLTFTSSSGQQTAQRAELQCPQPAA
T1 sequence (P01024 672-1663, chain 2 of 2): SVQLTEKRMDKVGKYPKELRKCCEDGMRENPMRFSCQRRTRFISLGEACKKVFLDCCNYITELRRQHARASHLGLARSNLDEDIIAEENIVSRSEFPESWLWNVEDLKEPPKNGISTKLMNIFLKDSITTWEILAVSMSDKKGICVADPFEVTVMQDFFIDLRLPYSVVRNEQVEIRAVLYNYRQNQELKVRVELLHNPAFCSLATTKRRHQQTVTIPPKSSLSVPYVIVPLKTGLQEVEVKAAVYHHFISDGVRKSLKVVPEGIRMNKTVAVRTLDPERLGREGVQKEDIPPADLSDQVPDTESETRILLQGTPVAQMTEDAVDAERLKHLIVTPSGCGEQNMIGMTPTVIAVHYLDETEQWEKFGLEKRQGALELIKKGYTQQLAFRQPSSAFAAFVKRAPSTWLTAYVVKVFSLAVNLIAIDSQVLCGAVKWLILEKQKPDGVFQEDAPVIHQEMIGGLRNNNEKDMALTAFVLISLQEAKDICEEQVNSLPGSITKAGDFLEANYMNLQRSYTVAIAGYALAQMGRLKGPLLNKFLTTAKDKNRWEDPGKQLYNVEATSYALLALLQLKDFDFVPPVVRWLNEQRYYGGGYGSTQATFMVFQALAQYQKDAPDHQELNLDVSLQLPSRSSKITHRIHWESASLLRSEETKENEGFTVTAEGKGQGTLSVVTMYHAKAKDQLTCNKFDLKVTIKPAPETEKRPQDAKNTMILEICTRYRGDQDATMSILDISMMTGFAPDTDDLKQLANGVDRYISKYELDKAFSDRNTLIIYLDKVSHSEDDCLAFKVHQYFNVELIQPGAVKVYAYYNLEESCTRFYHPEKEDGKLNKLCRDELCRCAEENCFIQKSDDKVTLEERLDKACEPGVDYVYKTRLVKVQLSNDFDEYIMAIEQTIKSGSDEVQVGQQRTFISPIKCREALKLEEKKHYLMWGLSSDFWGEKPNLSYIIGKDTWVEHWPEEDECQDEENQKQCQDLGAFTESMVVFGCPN

| Sequence | pKd [1, 3] | pIC50 [2, 3] | pKd ([1]; 2'-OMe at 1,2,3,5,7,9,10,13,19,20,22-28) | pIC50 ([2]; 2'-OMe at 1,2,3,5,7,9,10,13,19,20,22,23,24,25,26,27,28, C3a release in 34% serum IC50 3 uM) |
| --- | --- | --- | --- | --- |
| CGGUGACUCAAUAGUCCGUACGUUCCCG [8491-94_90] | 11.37 | 7.72 | – | – |
| CGGUGACUCAAUAGUCCGUACGUUCCCG [8491-94_97] | – | – | 10.26 | 7.81 |
